# Experimental data: US20100273186A1, “SPLIT MUTANT HYDROLASE FUSION REPORTER AND USES THEREOF” (Promega Corporation, priority 2007, published 2010)
# Key:
# [1] = Binding of substrate to DhaA mutants
# Text: (§1) Carboxytetramethylrhodamine-C10H21NO2—Cl, carboxyfluorescein-C10H21NO2—Cl, and 5-carboxy-X-rhodamine-C10H21NO2—Cl bound to DhaA.H272F but not to DhaA.WT. Biotin-C10H21NO2—Cl bound to DhaA.H272F but not to DhaA.WT.
# DhaA.H272 mutants, i.e. H272F/G/A/Q, bound to carboxytetramethylrhodamine-C10H21NO2—Cl.
# A control mutant, DhaA.D106Q, single mutants DhaA.D106C, DhaA.D106Y, and DhaA.D106E, as well as double mutants DhaA.D106C:H272F, DhaA.D106E:H272F, DhaA.D106Q:H272F, and DhaA.D106Y:H272F were analyzed for binding to carboxytetramethylrhodamine-C10H21NO2—Cl. Carboxytetramethylrhodamine-C10H21NO2—Cl bound to DhaA.D106C, DhaA.D106C:H272F, DhaA.D106E, and DhaA.H272F. Thus, the bond formed between carboxytetramethylrhodamine-C10H21NO2—Cl and cysteine or glutamate at residue 106 in a mutant DhaA is stable relative to the bond formed between carboxytetramethylrhodamine-C10H21NO2—Cl and DhaA.WT. Other substitutions at position 106 alone or in combination with substitutions at other residues in DhaA may yield similar results. Further, certain substitutions at position 106 alone or in combination with substitutions at other residues in DhaA may result in a mutant DhaA that forms a bond with only certain substrates.
# [2] = Binding of substrate to DhaA mutants; remark: listed apart in the source
# Text: as §1
Molecule,binding to carboxytetramethylrhodamine-C10H21NO2—Cl [1],binding to 5-carboxy-X-rhodamine-C10H21NO2—Cl [2],binding to Biotin-C10H21NO2—Cl [2],binding to carboxyfluorescein-C10H21NO2—Cl [2]
"DhaA.WT: wild type Rhodococcus rhodochrous dehalogenase (DhaA), SEQ ID NO:1 (protein, listed as Rhodococcus rhodochrous) MSEIGTGFPFDPHYVEVLGERMHYVDVGPRDGTPVLFLHGNPTSSYLWRNIIPHVAPSHRCIAPDLIGMGKSDKPDLDYFFDDHVRYLDAFIEALGLEEVVLVIHDWGSALGFHWAKRNPERVKGIACMEFIRPIPTWDEWPEFARETFQAFRTADVGRELIIDQNAFIEGALPKCVVRPLTEVEMDHYREPFLKPVDREPLWRFPNELPIAGEPANIVALVEAYMNWLHQSPVPKLLFWGTPGVLIPPAEAARLAESLPNCKTVDIGPGLHYLQEDNPDLIGSEIARWLPAL",not,not,not,not
"DhaA.D106E: DhaA single mutant D106E (protein, UniProt P0A3G2 1-293, looked up, variant D106E) Haloalkane dehalogenase: MSEIGTGFPFDPHYVEVLGERMHYVDVGPRDGTPVLFLHGNPTSSYLWRNIIPHVAPSHRCIAPDLIGMGKSDKPDLDYFFDDHVRYLDAFIEALGLEEVVLVIHEWGSALGFHWAKRNPERVKGIACMEFIRPIPTWDEWPEFARETFQAFRTADVGRELIIDQNAFIEGALPKCVVRPLTEVEMDHYREPFLKPVDREPLWRFPNELPIAGEPANIVALVEAYMNWLHQSPVPKLLFWGTPGVLIPPAEAARLAESLPNCKTVDIGPGLHYLQEDNPDLIGSEIARWLPAL",bound,,,
"DhaA.D106C: DhaA mutant, Asp106 replaced with Cys (protein, UniProt P0A3G2 1-293, looked up, variant D106C) Haloalkane dehalogenase: MSEIGTGFPFDPHYVEVLGERMHYVDVGPRDGTPVLFLHGNPTSSYLWRNIIPHVAPSHRCIAPDLIGMGKSDKPDLDYFFDDHVRYLDAFIEALGLEEVVLVIHCWGSALGFHWAKRNPERVKGIACMEFIRPIPTWDEWPEFARETFQAFRTADVGRELIIDQNAFIEGALPKCVVRPLTEVEMDHYREPFLKPVDREPLWRFPNELPIAGEPANIVALVEAYMNWLHQSPVPKLLFWGTPGVLIPPAEAARLAESLPNCKTVDIGPGLHYLQEDNPDLIGSEIARWLPAL",bound,,,
"DhaA.D106C:H272F: DhaA double mutant D106C and H272F (protein, UniProt P0A3G2 1-293, looked up, variant D106C H272F) Haloalkane dehalogenase: MSEIGTGFPFDPHYVEVLGERMHYVDVGPRDGTPVLFLHGNPTSSYLWRNIIPHVAPSHRCIAPDLIGMGKSDKPDLDYFFDDHVRYLDAFIEALGLEEVVLVIHCWGSALGFHWAKRNPERVKGIACMEFIRPIPTWDEWPEFARETFQAFRTADVGRELIIDQNAFIEGALPKCVVRPLTEVEMDHYREPFLKPVDREPLWRFPNELPIAGEPANIVALVEAYMNWLHQSPVPKLLFWGTPGVLIPPAEAARLAESLPNCKTVDIGPGLFYLQEDNPDLIGSEIARWLPAL",bound,,,
